Substrate: O=C(O)C(=O)Cc1ccc(O)cc1
Experiment: purified protein, by the assay type
Conditions: other: substrate HPP varied between 10 and 400 µM; SEQ ID No. 32; pH 7.8

B1: Arabidopsis thaliana HPPD "SEQ ID No. 32" (Arabidopsis thaliana) (protein)
chain: MGHQNAAVSENQNHDDGAASSPGFKLVGFSKFVRKNPKSDKFKVKRFHHIEFWCGDATNVARRFSWGLGMRFSAKSDLSTGNMVHASYLLTSGDLRFLFTAPYSPSLSAGEIKPTTTASIPSFDHGSCRSFFSSHGLGVRAVAIEVEDAESAFSISVANGAIPSSPPIVLNEAVTIAEVKLYGDVVLRYVSYKAEDTEKSEFLPGFERVEDASSFPLDYGIRRLDHAVGNVPELGPALTYVAGFTGFHQFAEFTADDVGTAESGLNSAVLASNDEMVLLPINEPVHGTKRKSQIQTYLEHNEGAGLQHLALMSEDIFRTLREMRKRSSIGGFDFMPSPPPTYYQNLKKRVGDVLSDDQIKECEELGILVDRDDQGTLLQIFTKPLGDRPTIFIEIIQRVGCMMKDEEGKAYQSGGCGGFGKGNFSELFKSIEEYEKTLEAKQLVG
- Km: 6.3 µM
